Assay results reported in patent publication US20140065150A1 (AGGAMIN PHARMACEUTICALS, published 2014).

Target: T1, human sFlt-1 protein (Ig-like domains 1-3), amino acids Ser27 to Ile328, with carboxy-terminal poly-histidine … (human, UniProt P17948 27-328)
T1 construct: range 27-328; also called sFlt-1 (domains 1-3); Recombinant sFlt1 (d1-d3)
Test: SPR (FIG. 2 legend: ForteBio Octet), antibody immobilized, sFlt-1 (domains 1-3) in the liquid phase; apparent Kd
Method: The apparent Kd of binding between purified monoclonal antibodies and sFlt1 was measured by surface plasmon resonance (SPR). (FIG. 2B). Antibodies were immobilized on the solid phase and sFlt-1 (domains 1-3) was in the liquid phase. There was no direct correlation between antibody affinity (as measured in a kinetic binding experiment) (FIG. 2B) and effectiveness (FIG. 2A) in the device. There was also no direct correlation with on-rates or off-rates and device effectiveness.

T1 sequence (P17948 27-328): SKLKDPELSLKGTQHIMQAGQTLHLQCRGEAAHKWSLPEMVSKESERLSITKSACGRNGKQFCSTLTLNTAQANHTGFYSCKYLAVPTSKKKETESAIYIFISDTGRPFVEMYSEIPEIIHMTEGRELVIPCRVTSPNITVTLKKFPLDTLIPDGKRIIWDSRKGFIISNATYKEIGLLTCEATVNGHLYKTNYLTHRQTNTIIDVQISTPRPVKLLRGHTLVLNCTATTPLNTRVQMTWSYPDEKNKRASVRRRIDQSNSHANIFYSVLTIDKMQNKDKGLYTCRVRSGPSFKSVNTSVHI

Kd: 1.44 nM
B1: antibody 101 (antibody, V domains shown)
VH: QVQLKQSGPGLVQPSQSLSLTCTVSGFSLTNYGVHWIRQSPGKGLEWLGVIWSGGSIDYNAVFTSRLTITKDHSKSQVFFKVNSLESNDTAIYYCARNVGYRYDDGYVMDYWGQGTSVIVSS
VL: SIVMTQTPKFLLVSAGDRVTITCKASQSVSIDVAWYQQKPGQSPKLLIYHASNRYTGVPDRFIGSRYGTDFTFTISTVQAEDLAVYFCQQNYDSPFTFGSGTKLELKR
notes: Mouse monoclonal antibody raised against human sFlt-1 (Ig-like domains 1-3)
